First the molecules themselves.
B1: R2HCD26 (VHH)
VHH: QVQLQESGGGLVQAGGSLRLSCAASGFTFDDYAIGWFRQAPGKEREGVSCIRVSDGSTYYADPVKGRFTISSDNAKNTVYLQMNSLKPEDAAVYYCAAGSLYTCVQSIVVVPARPYYDMDYWGKGTQVTVSS
notes: not shown: His tag (His-tagged VHHs); the vectors described carry His6 at the C-terminus; exact junction of the tested form not sta
B2: R3HCD27 (VHH)
VHH: QVQLQESGGGSVQPGGSLRLSCAASGFTFDDYAMSWVRQVPGKGLEWVSTINWNGGSAEYAEPVKGRFTISRDNAKNTVYLQMNSLKLEDTAVYYCAKDADLVWYNLSTGQGTQVTVSS
notes: as for B1
B3: R3HCD129 (VHH)
VHH: QVQLQESGGGLVQPGGSLRLSCAASGFTFDDYAMSWVRQVPGKGLEWVSTINWNGGSAEYAEPVKGRFTISRDNAKNTVYLQMNSLKLEDTAVYYCAKDADLVWYNLRTGQGTQVTVSS
notes: as for B1

T1 sequence (P01732 22-182): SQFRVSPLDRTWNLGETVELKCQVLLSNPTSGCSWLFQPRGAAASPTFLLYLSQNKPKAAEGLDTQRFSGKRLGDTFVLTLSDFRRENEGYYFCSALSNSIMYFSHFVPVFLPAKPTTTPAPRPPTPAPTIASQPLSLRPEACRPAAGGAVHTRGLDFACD

This assay concerns the target T1, His6-tagged extracellular domain of human CD8A (human, UniProt P01732 22-182).
T1 construct: extracellular domain; coated on the solid phase for panning and for the ELISA screening; also called Hiss-tagged extracellular domain of human CD8A; not shown: His tag
In words: ELISA, crude periplasmic extracts on coated His-tagged extracellular domain of human CD8A. As to the method: Three consecutive rounds of panning of a VHH library were performed on solid-phase coated Hiss-tagged extracellular domain of human CD8A (200 μg/ml, 20 μg/well). The enrichment for antigen-specific phages was assessed after each round of panning by comparing the number of phagemid particles eluted from antigen-coated wells with the number of phagemid particles eluted from only-blocked wells (negative control wells). […] 285 colonies (95 & 190 from 2nd and 3rd rounds, respectively) were randomly selected and analyzed by ELISA for the presence of antigen-specific VHHs in their periplasmic extracts (ELISA using crude periplasmic extracts including soluble VHHs). The antigen used for the ELISA screening was the same as the one used for immunization and panning. Out of these 285 colonies, 64 colonies (3 and 61 from 2nd and 3rd rounds of panning, respectively) scored positive in this assay. Based on sequence data, the 64 positive colonies represented 16 different VHHs. The 16 different VHHs belong to 6 different CDR3 groups. Table 2 below provides a description of 3 clones representing the 3 different anti-human CD8A VHH genes. E. coli TG1 harboring recombinant phagemid pMECS containing anti-human CD8A VHH sequences was generated and stored at −80° C. The vector pMECS codes for ampicillin resistance.
Background: In an ELISA, binding on a coated surface is turned into a signal by an enzyme label.
On to B1, for which the binding result was “binds”. The result for B2 reads “binds”. On to B3, for which the binding result is listed as “binds”.
